Target: TG (triacylglycerol)
Assay: TG binding assay with purified proteins, TLC of radiolabeled TG
Conditions: 2.5 mol % TG; parent: est. 1.5; read off a plot

response (relative to MBOAT7): 1.2
Substance: LDAC (m1 + m2) F57A; S61A; L105A; S109A
